The target of data set [1] is T1, His6-MgrA (Staphylococcus aureus NCTC8325) (UniProt Q2G0B1).
T1 sequence: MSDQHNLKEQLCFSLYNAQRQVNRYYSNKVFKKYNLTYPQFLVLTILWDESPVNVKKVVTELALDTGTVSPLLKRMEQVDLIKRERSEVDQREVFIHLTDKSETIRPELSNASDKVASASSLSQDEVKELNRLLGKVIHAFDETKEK
The data set can be described thus: competition. The note with it: EMSA: 50 mM Tris-HCl pH 8.0, 200 mM NaCl, 25°C, 1 h, DNase I footprinting: 20 mM Tris-HCl pH 8.0, 100 mM NaCl, 5 mM MgCl2, 1 mM CaCl2, 2 mM DTT. Background: In EMSA bound probe runs differently from free probe, usually more slowly.

For data set [2], the target named is T1, His6-MgrA (Staphylococcus aureus NCTC8325). The data set can be described thus: EMSA. The note with it: EMSA: 50 mM Tris-HCl pH 8.0, 200 mM NaCl, 25°C, 1 h, DNase I footprinting: 20 mM Tris-HCl pH 8.0, 100 mM NaCl, 5 mM MgCl2, 1 mM CaCl2, 2 mM DTT.

For 2 sequences, binding results are on record in paper PMC6070752.

In the case of “ACTTAAATACGAATTCAGGCAACTTAATTGTGTTAAATACAGTTTTGAATGCCTAACTGTATTTCTTTTCTCTTTAAAATACAGTTAAGTACATTATAAGATGTTGTGCGGATAAACAAACTAATTGCATCAAATTTATTTTAAAATAACAACAACAAAACGTTAAGCGAATAACATTTCGGTGATTTAAAAGCTACGCACGTTTTTGTTATCTTCAAATTTAAATTTTAAGGAGTGTTTTCAATGGAAGGTT (double strand) [unlabeled psmβ promoter fragment (Ppsmβ), 243 bp]”, in data set [1], the binding result is on record as “binds”.

Turning to “ACTTAAATACGAATTCAGGCAACTTAATTGTGTTAAATACAGTTTTGAATGCCTAACTGTATTTCTTTTCTCTTTAAAATACAGTTAAGTACATTATAAGATGTTGTGCGGATAAACAAACTAATTGCATCAAATTTATTTTAAAATAACAACAACAAAACGTTAAGCGAATAACATTTCGGTGATTTAAAAGCTACGCACGTTTTTGTTATCTTCAAATTTAAATTTTAAGGAGTGTTTTCAATGGAAGGTT (double strand) [psmβ promoter fragment (Ppsmβ-biotin), 243 bp]”, in data set [2], the binding result was “binds”.
